One may read the stoichiometry N as the number of molecules, sites or subunits per partner or assembly.

Consider one protein from paper PMC8327139, “Nodal modulator (NOMO) is required to sustain endoplasmic reticulum morphology” (The Journal of Biological Chemistry, 2021).

The series concerns the molecule itself. In words: SEC-MALS; NOMO1-FLAG on a Superose 6 column, RT, 50 mM MES pH 6.0, 150 mM KCl, 5 mM MgCl2, 5 mM CaCl2, 2% glycerol, 0.05% DDM; protein conjugate analysis to correct for detergent. A general note: Size exclusion chromatography separates by hydrodynamic size, large species first.

B1: NOMO1-FLAG (nodal modulator 1, full length, C-terminal FLAG tag) (natural protein, human, UniProt Q15155 32-1222, looked up)
chain: SEDIVVGCGGFVKSDVEINYSLIEIKLYTKHGTLKYQTDCAPNNGYFMIPLYDKGDFILKIEPPLGWSFEPTTVELHVDGVSDICTKGGDINFVFTGFSVNGKVLSKGQPLGPAGVQVSLRNTGTEAKIQSTVTQPGGKFAFFKVLPGDYEILATHPTWALKEASTTVRVTNSNANAASPLIVAGYNVSGSVRSDGEPMKGVKFLLFSSLVTKEDVLGCNVSPVPGFQPQDESLVYLCYTVSREDGSFSFYSLPSGGYTVIPFYRGERITFDVAPSRLDFTVEHDSLKIEPVFHVMGFSVTGRVLNGPEGDGVPEAVVTLNNQIKVKTKADGSFRLENITTGTYTIHAQKEHLYFETVTIKIAPNTPQLADIIATGFSVCGQISIIRFPDTVKQMNKYKVVLSSQDKDKSLVTVETDAHGSFCFKAKPGTYKVQVMVPEAETRAGLTLKPQTFPLTVTNRPMMDVAFVQFLASVSGKVSCLDTCGDLLVTLQSLSRQGEKRSLQLSGKVNAMTFTFDNVLPGKYKISIMHEDWCWKNKSLEVEVLEDDMSAVEFRQTGYMLRCSLSHAITLEFYQDGNGRENVGIYNLSKGVNRFCLSKPGVYKVTPRSCHRFEQAFYTYDTSSPSILTLTAIRHHVLGTITTDKMMDVTVTIKSSIDSEPALVLGPLKSVQELRREQQLAEIEARRQEREKNGNEEGEERMTKPPVQEMVDELQGPFSYDFSYWARSGEKITVTPSSKELLFYPPSMEAVVSGESCPGKLIEIHGKAGLFLEGQIHPELEGVEIVISEKGASSPLITVFTDDKGAYSVGPLHSDLEYTVTSQKEGYVLTAVEGTIGDFKAYALAGVSFEIKAEDDQPLPGVLLSLSGGLFRSNLLTQDNGILTFSNLSPGQYYFKPMMKEFRFEPSSQMIEVQEGQNLKITITGYRTAYSCYGTVSSLNGEPEQGVAMEAVGQNDCSIYGEDTVTDEEGKFRLRGLLPGCVYHVQLKAEGNDHIERALPHHRVIEVGNNDIDDVNIIVFRQINQFDLSGNVITSSEYLPTLWVKLYKSENLDNPIQTVSLGQSLFFHFPPLLRDGENYVVLLDSTLPRSQYDYILPQVSFTAVGYHKHITLIFNPTRKLPEQDIAQGSYIALPLTLLVLLAGYNHDKLIPLLLQLTSRLQGVRALGQAASDNSGPEDAKRQAKKQKTRRT
notes: Nodal modulator 1 (NOMO1), human, type I transmembrane glycoprotein: luminal domain (1124 residues), TM domain, 40-residue cytosolic tail; cloned from a Dharmacon plasmid into pcDNA3.1+; 135 kDa with the tag; Membrane protein kept in dodecyl maltoside (0.05% DDM); also called full-length NOMO1-FLAG; full-length NOMO; source: Expi293F, transfected, purified in DDM (anti-FLAG M2 beads, FLAG peptide …)
For B1, the “stoichiometry N” value is 2.
